Test [1] concerns hybrid between murine and human LAMP1 domains. In words: Epitope ELISA on human/mouse hybrid LAMP1 extracellular domains. Format: binding. The text has this:
The high level of glycosylation of the antigen required a specific approach to determine the binding site of the anti-LAMP1 mAbs on LAMP1. […] This absence of binding was used to design several chimeric LAMP1 proteins in which one or several of the LAMP1 domains (Loop1-Loop4) in the human construct were replaced by the murine counterpart. The absence of binding once the binding site of the antibody was replaced by the murine counterpart allowed for identification of the antibody binding side.

A further test addresses T1, mLAMP1_ΔGYQTI (Mus musculus, UniProt P11438).
T1 construct: expressed in transfected cells; host or cells: 293-F (HEK293-derived), transient transfection, plasmid pXL6009
T1 sequence (P11438 with tags, fused parts or gaps limits assumed): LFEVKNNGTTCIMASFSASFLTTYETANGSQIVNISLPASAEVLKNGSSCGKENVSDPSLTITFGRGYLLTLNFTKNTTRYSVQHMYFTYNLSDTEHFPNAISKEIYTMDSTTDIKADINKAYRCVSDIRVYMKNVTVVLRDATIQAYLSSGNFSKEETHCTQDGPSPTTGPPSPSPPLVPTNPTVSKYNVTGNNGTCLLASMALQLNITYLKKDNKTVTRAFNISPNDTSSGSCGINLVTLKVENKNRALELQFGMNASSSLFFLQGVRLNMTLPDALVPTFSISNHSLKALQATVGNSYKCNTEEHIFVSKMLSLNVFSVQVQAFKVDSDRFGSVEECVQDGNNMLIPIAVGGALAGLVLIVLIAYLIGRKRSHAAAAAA
In words: Binding onto membrane-anchored murine LAMP1 (293-F cells) by flow cytometry. As to conditions: pXL6009 mLAMP1_ΔGYQTI. The text has this:
Different LAMP1 proteins were expressed at the cell membrane of HEK293 cells after transient expression from mammalian plasmids encoding the entire coding sequence of LAMP1 deleted of the intracellular lysosome-targeting motif GYQTI and substituted by a 5-Ala repeat sequence. Mammalian plasmids had similar expression signals as plasmids used to produce recombinant LAMP1 described in example 6.2. Table 14 below lists all the plasmids that were designed in order to confirm the results obtained with soluble LAMP1 protein by ELISA in example 6.3 and further characterize the binding domains of the anti-LAMP1 mAbs.
Each expression plasmid described in example 6.4 was complexed with 293Fectin™ in suspension-cultivated 293-F cells as using the protocol outlined in example 6.2. Two days post transfection cells were processed, analyzed by flow cytometry (Guava® easyCyte™ 8HT) as mentioned in example 4.7, and the mean fluorescence was recorded. This fluorescence represents a semi-quantitative assessment of binding.

Another test addresses T2, hLAMP1_ΔGYQTI (Homo sapiens, UniProt P11279).
T2 construct: expressed in transfected cells; host or cells: 293-F (HEK293-derived), transient transfection, plasmid pXL5626
T2 sequence (P11279 with tags, fused parts or gaps limits assumed): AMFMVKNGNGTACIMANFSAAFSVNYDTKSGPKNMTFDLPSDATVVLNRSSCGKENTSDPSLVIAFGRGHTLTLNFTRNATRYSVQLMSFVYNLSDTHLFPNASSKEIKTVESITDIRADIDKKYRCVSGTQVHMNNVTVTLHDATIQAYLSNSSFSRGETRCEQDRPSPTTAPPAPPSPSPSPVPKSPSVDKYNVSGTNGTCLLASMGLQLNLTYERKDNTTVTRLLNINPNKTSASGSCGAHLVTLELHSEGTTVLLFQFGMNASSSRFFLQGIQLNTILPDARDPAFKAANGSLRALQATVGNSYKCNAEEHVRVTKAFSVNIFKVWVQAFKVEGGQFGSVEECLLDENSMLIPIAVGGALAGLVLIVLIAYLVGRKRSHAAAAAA
The experiment in a line: Binding onto membrane-anchored human LAMP1 (293-F cells) by flow cytometry. As to conditions: pXL5626 hLAMP1_ΔGYQTI. As to the method:
Different LAMP1 proteins were expressed at the cell membrane of HEK293 cells after transient expression from mammalian plasmids encoding the entire coding sequence of LAMP1 deleted of the intracellular lysosome-targeting motif GYQTI and substituted by a 5-Ala repeat sequence.
Two days post transfection cells were processed, analyzed by flow cytometry (Guava® easyCyte™ 8HT) as mentioned in example 4.7, and the mean fluorescence was recorded. This fluorescence represents a semi-quantitative assessment of binding.

Test [2] relates to Colon Colo205 tumoral cells expressing LAMP1. In words: Internalization score by ImageStream multispectral imaging flow cytometer. Format: cell-based, human. To be noted: Colo205, 10 μg/ml AlexaFluor488-labeled antibody. The text has this:
The internalization score (IS) is defined as a ratio of the fluorescence intensity inside the cell to the intensity of the entire cell. […] The higher the score, the greater the fluorescence intensity is inside the cell. As described by Amnis (see the world wide web at amnis.com), the inside of the cell is defined by an erosion of a mask that fits the membrane of the cell. The score is invariant to cell size and can accommodate concentrated bright regions and small dim spots. The ratio is mapped to a logarithmic scale to increase the dynamic range to values between {−inf, inf}. The thickness of the membrane (in pixels) determines which pixels are used to define the boundary and the membrane portions of the cell. The user supplies an ‘internal’ mask based on the brightfield image that covers the inside of the cell, the thickness of the membrane in pixels and the fluorescent channel of interest. The cell is divided into 2 regions: External (B) and internal (I). The user supplies the internal region as the mask. The external region is determined by: 1. Dilating the internal mask by the membrane thickness. 2. Combining 1 with the object mask of the channel of interest. 3. External region equals mask 2 and not the internal mask. Next, the mean intensity of the upper quartile of the pixels in each region is determined. The Internalization Score (IS) is then computed as follows:
Cells were washed by centrifugation with PBS 1% BSA at 400 g for 5 minutes. Cells were fixed and permeabilized using 100 μL of Perm/Fix buffer on ice for 20 minutes. Cells were washed by centrifugation with 1 mL of Perm/Wash Cell buffer at 400 g for 5 minutes.
To test whether internalized antibodies accumulate in lysosomes, simultaneous uptake of mAbs and AlexaFluor647-labeled CD107a (a lysosomal marker) were carried out. […] After incubation, 1 mL Perm/Wash Cell buffer was added to wash, before centrifuging (400 g, 5 min). The supernatant was flicked from the plate before the cells were fixed with 200 μL 1% formaldehyde on ice for 20 minutes. The fluorescence of cells was analyzed with the ImageStream multispectral imaging flow cytometer (Amnis corp.) using the Internalization feature. Five thousand events were acquired for each experimental condition and the corresponding images were analyzed using the IDEAS image-analysis software.

Setting [3] is: read-out: EC50 (nM) Loop1-2: hLAMP1 Loop3-4: mLAMP1.
[4] abbreviates: read-out: EC50 (nM) Loop1-3: hLAMP1 Loop4: mLAMP1.

Where two headings read alike, the source gives them in different places.

B1: MAb1: murine monoclonal anti-LAMP1 antibody, VH SEQ ID NO: 1, VL SEQ ID NO: 5 (antibody, V domains shown)
VH: QVQLQQSGAELVKPGASVKMSCKASGYIFTNYNIHWVKKSPGQGLEWIGAIYPGNGDAPYSQKFKDKATLTADKSSSTTYMQLSRLTSEDSAVYYCVRANWDVAFAYWGQGTLVSVSA
VL: DIQMTQSPPSLSASLGGKVTITCKASQDIDRYMAWYQDKPGKGPRLLIHDTSTLQPGIPSRFSGSGSGRDYSFSISNLEPEDIATYYCLQYDNLWTFGGGTKLEIK
modifications: Antibody Fragment; antibody fragment
For the molecule B1, the “EC50 (nM) Loop1-2: mLAMP1 Loop3-4: hLAMP1” value in test [1] is given as “No binding”. Further, the EC50 (in general, the concentration that produces a half-maximal response) stood at 0.18 nM in test [1] (setting [3]), 0.16 nM in test [1] (setting [4]) and 0.15 nM in test [1] (read-out: EC50 (nM) Loop1: mLAMP1 Loop2-4: hLAMP1). Further, the Binding call in the test with mLAMP1_ΔGYQTI (Table 17 Experiment no1) was “No binding”; in the test with mLAMP1_ΔGYQTI (Table 17 Experiment no2), “No binding”; with hLAMP1_ΔGYQTI (Table 17 Experiment no1), “Binding”; in the test with hLAMP1_ΔGYQTI (Table 17 Experiment no2), “Full binding”; with hLAMP1_ΔGYQTI (Table 18), “Binding”. In addition, the Mean fluorescence with mLAMP1_ΔGYQTI (Table 17 Experiment no1) turned out to be 4; with mLAMP1_ΔGYQTI (Table 17 Experiment no2), 2; in the test with mLAMP1_ΔGYQTI (Table 18), 13; in the test with hLAMP1_ΔGYQTI (Table 17 Experiment no1), 1748; with hLAMP1_ΔGYQTI (Table 17 Experiment no2), 551; with hLAMP1_ΔGYQTI (Table 18), 914. Further, the “Internalization score (IS) 4° C., 4 hr” value in test [2] was 0.22. Also, in test [2], the “Internalization score (IS) 37° C., 4 hr” value worked out at 2.22.

B2: MAb2: murine monoclonal anti-LAMP1 antibody, VH SEQ ID NO: 8, VL SEQ ID NO: 12 (antibody, V domains shown)
VH: QVQLQQSAAELARPGASVKMSCKASGYTFTSYTMHWVKQRPGQGLEWIGYFNPSSGYPEYNQKFKDKTTLTADKSSNTAFIQLNSLTSEDSAVYYCSRGYYYGSRGYALDFWGQGASVTVSS
VL: NIVLTQSPVSLAVSLGQRATISCRASESVDINGNTFMHWYQQKPGQSPKLVIYAASNIESGVPARFSGSGSSTDFTFTIDPVEADDVATYYCQQNIEDPWTFGGGTKVEIK
modifications: antibod fragment; antibody fragment
Regarding B2, the “EC50 (nM) Loop1-2: mLAMP1 Loop3-4: hLAMP1” value in test [1] is listed as “No binding”. Besides, the “EC50 (nM) Loop1: mLAMP1 Loop2-4: hLAMP1” value in test [1] was “No binding”. Besides, the half-maximal effective concentration (EC50) in test [1] (setting [3]) and in test [1] (setting [4]) was 0.25 nM in each case. In addition, the Binding call with mLAMP1_ΔGYQTI (Table 17 Experiment no1) is recorded as “No binding”; with mLAMP1_ΔGYQTI (Table 18), “No binding”; with hLAMP1_ΔGYQTI (Table 17 Experiment no1) it was “binding”; with hLAMP1_ΔGYQTI (Table 18), “Binding”. For the same molecule, the Mean fluorescence came out at 21 with mLAMP1_ΔGYQTI (Table 17 Experiment no1), 27 in the test with mLAMP1_ΔGYQTI (Table 18), 1183 with hLAMP1_ΔGYQTI (Table 17 Experiment no1) and 757 in the test with hLAMP1_ΔGYQTI (Table 18). In test [2], the “Internalization score (IS) 4° C., 4 hr” value amounted to 0.19. In addition, the “Internalization score (IS) 37° C., 4 hr” value in test [2] is listed as 2.24.

(Values after patent US9809653B2, “Anti-LAMP1 antibodies and antibody drug conjugates, and uses thereof” (SANOFI, priority 2012, dated 2017).)
